From PMC6733756
Where two headings read alike, the source gives them in different places.

Columns and labels:
human XCR1 (human) [1] = target: human XCR1 (human) (UniProt P46094)
human XCR1 (human) [2] = target: human XCR1 (human) (UniProt P46094); test: radioligand binding
human XCR1 (human) [3] = target: human XCR1 (human) (UniProt P46094); remark: listed apart in the source
human XCR1 (human) [4] = target: human XCR1 (human) (UniProt P46094); test: radioligand binding; remark: listed apart in the source

| Molecule | calcium flux in XCR1-expressing HEK293 cells, EC50 (human XCR1 (human) [1]) | EC50 (human XCR1 (human) [2]) | other results |
| --- | --- | --- | --- |
| XCL1 +Gly^N-term (from UniProt P47992 22-114) (ligand) | > 268 nM | – | fold decrease in affinity against XCL1 CC3 (human XCR1 (human) [2]): > 100 fold |
| XCL1 ΔVal^1 (from UniProt P47992 22-114) (ligand) | – | – | fold decrease in affinity against XCL1 CC3 (human XCR1 (human) [2]): > 100 fold |
| XCL1 CC3 (ligand) VGSEVSDKRTCVSLTTQRLPCSRIKTYTITEGSLRAVIFITKRGLKVCADPQATWVRDCVRSMDRKSNTRNNMIQTKPTGTQQSTNTAVTLTG | – | 1 nM | ^3H-IP3 accumulation in COS-7 cells transfected with XCR1 and Gqi4myr, EC50 (human XCR1 (human) [3]): 14.1 nM |
| XCL1 CC3 R9A (ligand) VGSEVSDKATCVSLTTQRLPCSRIKTYTITEGSLRAVIFITKRGLKVCADPQATWVRDCVRSMDRKSNTRNNMIQTKPTGTQQSTNTAVTLTG | – | < 1 nM | – |
| XCL1 CC3 E4A (ligand) VGSAVSDKRTCVSLTTQRLPCSRIKTYTITEGSLRAVIFITKRGLKVCADPQATWVRDCVRSMDRKSNTRNNMIQTKPTGTQQSTNTAVTLTG | – | – | fold decrease in affinity against XCL1 CC3 (human XCR1 (human) [2]): > 100 fold |
| XCL1 CC3 G2A (ligand) VASEVSDKRTCVSLTTQRLPCSRIKTYTITEGSLRAVIFITKRGLKVCADPQATWVRDCVRSMDRKSNTRNNMIQTKPTGTQQSTNTAVTLTG | > 268 nM | – | fold decrease in affinity against XCL1 CC3 (human XCR1 (human) [2]): > 100 fold |
| XCL1 CC3 D7A (ligand) VGSEVSAKRTCVSLTTQRLPCSRIKTYTITEGSLRAVIFITKRGLKVCADPQATWVRDCVRSMDRKSNTRNNMIQTKPTGTQQSTNTAVTLTG | > 268 nM | – | EC50 (human XCR1 (human) [4]): < 1 nM |
| XCL1 CC3 T10A (ligand) VGSEVSDKRACVSLTTQRLPCSRIKTYTITEGSLRAVIFITKRGLKVCADPQATWVRDCVRSMDRKSNTRNNMIQTKPTGTQQSTNTAVTLTG | – | – | EC50 (human XCR1 (human) [4]): < 1 nM |
| XCL1 CC3 V1A (ligand) AGSEVSDKRTCVSLTTQRLPCSRIKTYTITEGSLRAVIFITKRGLKVCADPQATWVRDCVRSMDRKSNTRNNMIQTKPTGTQQSTNTAVTLTG | > 268 nM | – | – |
| XCL1 CC3 S6A (ligand) VGSEVADKRTCVSLTTQRLPCSRIKTYTITEGSLRAVIFITKRGLKVCADPQATWVRDCVRSMDRKSNTRNNMIQTKPTGTQQSTNTAVTLTG | – | < 1 nM | – |

More lines, main results first:

| calcium flux in XCR1-expressing HEK293 cells, EC50 (human XCR1 (human) [1]) | EC50 (human XCR1 (human) [2]) | Molecule | other results |
| --- | --- | --- | --- |
| – | 7.7 nM | XCL1 WT (ligand) VGSEVSDKRTCVSLTTQRLPVSRIKTYTITEGSLRAVIFITKRGLKVCADPQATWVRDVVRSMDRKSNTRNNMIQTKPTGTQQSTNTAVTLTG | ^3H-IP3 accumulation in COS-7 cells transfected with XCR1 and Gqi4myr, EC50 (human XCR1 (human) [3]): 17.6 nM |
| – | 8 nM | XCL1 CC3 V5A (ligand) VGSEASDKRTCVSLTTQRLPCSRIKTYTITEGSLRAVIFITKRGLKVCADPQATWVRDCVRSMDRKSNTRNNMIQTKPTGTQQSTNTAVTLTG | – |
| > 268 nM | – | XCL1 CC3 S3A (ligand) VGAEVSDKRTCVSLTTQRLPCSRIKTYTITEGSLRAVIFITKRGLKVCADPQATWVRDCVRSMDRKSNTRNNMIQTKPTGTQQSTNTAVTLTG | – |
| > 268 nM | 5.2 nM | XCL1 CC3 K8A (ligand) VGSEVSDARTCVSLTTQRLPCSRIKTYTITEGSLRAVIFITKRGLKVCADPQATWVRDCVRSMDRKSNTRNNMIQTKPTGTQQSTNTAVTLTG | EC50 (human XCR1 (human) [4]): < 1 nM |
